Source: patent US20120034160A1 (AbbVie / Abbott, published 2012)

T1: Recombinant Human IL-17 (human, UniProt Q16552 20-155, limits assumed)
T1 sequence (looked up): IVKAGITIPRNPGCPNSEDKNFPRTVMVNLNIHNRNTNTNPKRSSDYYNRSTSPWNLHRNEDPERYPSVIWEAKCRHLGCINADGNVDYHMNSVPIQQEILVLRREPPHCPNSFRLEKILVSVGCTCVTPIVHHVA

B1: DVD1282 (bispecific antibody, human IgG1, kappa)
heavy: not shown
light: DIQMTQSPSSLSASVGDRVTITCRASGNIHNYLTWYQQTPGKAPKLLIYNAKTLADGVPSRFSGSGSGTDYTFTISSLQPEDIATYYCQHFWSIPYTFGQGTKLQITRTVAAPEIVLTQSPDFQSVTPKEKVTITCRASQNIGSELHWYQQKPDQSPKLLIKYASHSISGVPSRFSGSGSGTDFTLTINGLEAEDAATYYCHQSDTLPHTFGQGTKVDIKRTVAAPSVFIFPPSDEQLKSGTASVVCLLNNFYPREAKVQWKVDNALQSGNSQESVTEQDSKDSTYSLSSTLTLSKADYEKHKVYACEVTHQGLSSPVTKSFNRGEC
B2: DVD1284 (bispecific antibody, human IgG1, kappa)
heavy: not shown
light: B1 light
B3: DVD1283 (bispecific antibody, human IgG1, kappa)
heavy: not shown
light: EIVLTQSPDFQSVTPKEKVTITCRASQNIGSELHWYQQKPDQSPKLLIKYASHSISGVPSRFSGSGSGTDFTLTINGLEAEDAATYYCHQSDTLPHTFGQGTKVDIKRTVAAPDIQMTQSPSSLSASVGDRVTITCRASGNIHNYLTWYQQTPGKAPKLLIYNAKTLADGVPSRFSGSGSGTDYTFTISSLQPEDIATYYCQHFWSIPYTFGQGTKLQITRTVAAPSVFIFPPSDEQLKSGTASVVCLLNNFYPREAKVQWKVDNALQSGNSQESVTEQDSKDSTYSLSSTLTLSKADYEKHKVYACEVTHQGLSSPVTKSFNRGEC
B4: DVD1285 (bispecific antibody, human IgG1, kappa)
heavy: not shown
light: B3 light
B5: DVD1281 (bispecific antibody, human IgG1, kappa)
heavy: not shown
light: EIVLTQSPDFQSVTPKEKVTITCRASQDIGSELHWYQQKPDQPPKLLIKYASHSTSGVPSRFSGSGSGTDFTLTINGLEAEDAGTYYCHQTDSLPYTFGPGTKVDIKRTVAAPETTVTQSPSSLSASVGDRVTITCITSTDIDVDMNWYQQKPGKPPKLLISQGNTLRPGVPSRFSSSGSGTDFTFTISSLQPEDFATYYCLQSDNLPLTFGQGTKLEIKRTVAAPSVFIFPPSDEQLKSGTASVVCLLNNFYPREAKVQWKVDNALQSGNSQESVTEQDSKDSTYSLSSTLTLSKADYEKHKVYACEVTHQGLSSPVTKSFNRGEC
B6: DVD1286 (bispecific antibody, human IgG1, kappa)
heavy: not shown
light: DTQVTQSPSSLSASVGDRVTITCITSTDIDVDMNWYQQKPGKPPKLLISQGNTLRPGVPSRFSSSGSGTDFTFTISSLQPEDFATYYCLQSDNLPLTFGQGTKLEIKRTVAAPEIVLTQSPDFQSVTPKEKVTITCRASQNIGSELHWYQQKPDQSPKLLIKYASHSISGVPSRFSGSGSGTDFTLTINGLEAEDAATYYCHQSDTLPHTFGQGTKVDIKRTVAAPSVFIFPPSDEQLKSGTASVVCLLNNFYPREAKVQWKVDNALQSGNSQESVTEQDSKDSTYSLSSTLTLSKADYEKHKVYACEVTHQGLSSPVTKSFNRGEC

target: T1, Recombinant Human IL-17; assay: cell-based or functional assay

C-terminal VD IL-17 Neutralization Assay EC50	N-terminal VD IL-17 Neutralization Assay EC50	Binder
> 20000 pM		B1
> 20000 pM		B2
	23.8 pM	B3
	2.1 pM	B4
	2.7 pM	B5
259 pM		B6

target: Recombinant Human IL-1β (human, UniProt P01584 117-269); assay: cell-based or functional assay

N-Terminal VD IL-1β Neutralization Assay EC50	C-Terminal VD IL-1β Neutralization Assay EC50	Binder
9.1 pM		B1
6.5 pM		B2
	7610 pM	B3
	1270 pM	B4
	> 150000 pM	B5
165 pM		B6
